What was measured:
[1] = target: MERS-CoV spike protein, recombinant soluble ectodomain trimer (MERS-CoV) (UniProt K9N5Q8); assay: SEC
[2] = target: SARS-CoV spike protein, recombinant soluble ectodomain trimer (SARS-CoV) (UniProt P59594); assay: SEC

| Substance | stoichiometry N [1] | stoichiometry N [2] |
| --- | --- | --- |
| MERS-CoV spike protein, recombinant soluble ectodomain trimer (from UniProt K9N5Q8 18-1296) (domain or fragment) | 3 |  |
| SARS-CoV spike protein, recombinant soluble ectodomain trimer (from UniProt P59594 14-1195) (domain or fragment) |  | 3 |

— paper doi:10.1101/2020.06.22.20137695
